# Molecular target: HLA-A*02:01 (Homo sapiens, UniProt P04439, D140Y/D185E/D98H/E176V/E277Q/G131W/G231S/I119V/I121R/I166T/I218V/L300P/L318F/N151K/N90K/P208A/P217A/Q86G/Q94H/R138H/R169H/T345S)
# Test: MHC binding assay (UV-ligand exchange, beta2m ELISA, peptide exchange yield)
# Conditions: binding to HLA-A*02:01
# Excerpt: Candidate peptides for T cell based therapies according to the present invention were further tested for their MHC binding capacity (affinity). The individual peptide-MHC complexes were produced by UV-ligand exchange, where a UV-sensitive peptide is cleaved upon UV-irradiation, and exchanged with the peptide of interest as analyzed. Only peptide candidates that can effectively bind and stabilize the peptide-receptive MHC molecules prevent dissociation of the MHC complexes. To determine the yield of the exchange reaction, an ELISA was performed based on the detection of the light chain ([…]) of stabilized MHC complexes. The assay was performed as generally described in Rodenko et al. (Rodenko et al., 2006).
# 96 well MAXISorp plates (NUNC) were coated over night with 2 ug/ml streptavidin in PBS at room temperature, washed 4× and blocked for 1 h at 37° C. in 2% BSA containing blocking buffer. Refolded HLA-A*02:01/MLA-001 monomers served as standards, covering the range of 15-500 ng/ml. Peptide-MHC monomers of the UV-exchange reaction were diluted 100 fold in blocking buffer. Samples were incubated for 1 h at 37° C., washed four times, incubated with 2 ug/ml HRP conjugated anti-β2m for 1 h at 37° C., washed again and detected with TMB solution that is stopped with […]. Absorption was measured at 450 nm. Candidate peptides that show a high exchange yield (preferably higher than 50%, most preferred higher than 75%) are generally preferred for a generation and production of antibodies or fragments thereof, and/or T cell receptors or fragments thereof, as they show sufficient avidity to the MHC molecules and prevent dissociation of the MHC complexes.
row,Substance,"Peptide exchange (MHC class I binding score, peptide exchange yield)"
1,76 (YLIGEKQHYL; listed as Homo sapiens) [compound 76],“+++” (≥50 = +++)
2,189 (AISEVIGKITA; listed as Homo sapiens) [compound 189],“+++” (≥50 = +++)
3,26 (GLASKENFSNVSL; listed as Homo sapiens) [compound 26],“++” (≥20% = ++)
4,122 (SLMGMVLKL; listed as Homo sapiens) [compound 122],“+++” (≥50 = +++)
5,73 (YLFDIAVSM; listed as Homo sapiens) [compound 73],“+++” (≥50 = +++)
6,146 (ALSDETWGL; listed as Homo sapiens) [compound 146],“++” (≥20% = ++)
7,161 (FLKNELDNV; listed as Homo sapiens) [compound 161],“+++” (≥50 = +++)
8,143 (KLSDVWKEL; listed as Homo sapiens) [compound 143],“+++” (≥50 = +++)
9,160 (KLLEFDQLQL; listed as Homo sapiens) [compound 160],“+++” (≥50 = +++)
10,96 (KLYSRLVYV; listed as Homo sapiens) [compound 96],“++” (≥20% = ++)
11,40 (ALSNVIHKV; listed as Homo sapiens) [compound 40],“++” (≥20% = ++)
12,114 (TAVGHALVL; listed as Homo sapiens) [compound 114],“+” (≥10% = +)
13,57 (NLLEKENYL; listed as Homo sapiens) [compound 57],“+++” (≥50 = +++)
14,147 (TLTELRAFL; listed as Homo sapiens) [compound 147],“++++” (≥75% = ++++)
15,89 (SLIEYEFRV; listed as Homo sapiens) [compound 89],“+++” (≥50 = +++)
16,68 (SILQFVHMV; listed as Homo sapiens) [compound 68],“+++” (≥50 = +++)
17,158 (GLLDPSVFHV; listed as Homo sapiens) [compound 158],“+++” (≥50 = +++)
18,174 (ILLDDNMQIRL; listed as Homo sapiens) [compound 174],“++++” (≥75% = ++++)
19,14 (FLDKPEDVLL; listed as Homo sapiens) [compound 14],“++” (≥20% = ++)
20,78 (ALDPELLLL; listed as Homo sapiens) [compound 78],“++” (≥20% = ++)
21,135 (KLQEEIPVL; listed as Homo sapiens) [compound 135],“++” (≥20% = ++)

row,Substance,"Peptide exchange (MHC class I binding score, peptide exchange yield)"
1,119 (ILYQTVTGL; listed as Homo sapiens) [compound 119],“++” (≥20% = ++)
2,99 (KLLEVDLDTV; listed as Homo sapiens) [compound 99],“+++” (≥50 = +++)
3,106 (SLISEKILL; listed as Homo sapiens) [compound 106],“+++” (≥50 = +++)
4,35 (KLLDLTVRI; listed as Homo sapiens) [compound 35],“+++” (≥50 = +++)
5,148 (RLLENMTEVV; listed as Homo sapiens) [compound 148],“+++” (≥50 = +++)
6,155 (RLLGEEVVRV; listed as Homo sapiens) [compound 155],“+++” (≥50 = +++)
7,83 (LTIEDGIFEV; listed as Homo sapiens) [compound 83],“+++” (≥50 = +++)
8,118 (LLADLKTMV; listed as Homo sapiens) [compound 118],“+++” (≥50 = +++)
9,60 (VLDEDEPRFL; listed as Homo sapiens) [compound 60],“++” (≥20% = ++)
10,120 (VLYEGVDEV; listed as Homo sapiens) [compound 120],“++” (≥20% = ++)
11,45 (ALAELLHGA; listed as Homo sapiens) [compound 45],“+++” (≥50 = +++)
12,85 (ILHDINSDGVL; listed as Homo sapiens) [compound 85],“++” (≥20% = ++)
13,179 (RLLSPLSSA; listed as Homo sapiens) [compound 179],“+++” (≥50 = +++)
14,156 (SLMMTIINL; listed as Homo sapiens) [compound 156],“++++” (≥75% = ++++)
15,58 (AMADKMDMSL; listed as Homo sapiens) [compound 58],“++” (≥20% = ++)
16,131 (KLLDVVHPA; listed as Homo sapiens) [compound 131],“++” (≥20% = ++)
17,159 (VLVDDDGIKVV; listed as Homo sapiens) [compound 159],“++” (≥20% = ++)
18,41 (ILDDSFKLL; listed as Homo sapiens) [compound 41],“++” (≥20% = ++)
19,167 (SVIDHIHLISV; listed as Homo sapiens) [compound 167],“+++” (≥50 = +++)
20,172 (LLLDTVTMQV; listed as Homo sapiens) [compound 172],“+++” (≥50 = +++)
21,185 (VLYTGVVRV; listed as Homo sapiens) [compound 185],“+++” (≥50 = +++)

row,Substance,"Peptide exchange (MHC class I binding score, peptide exchange yield)"
1,144 (LLNDRIWLA; listed as Homo sapiens) [compound 144],“+++” (≥50 = +++)
2,145 (LLLEVVKQV; listed as Homo sapiens) [compound 145],“+++” (≥50 = +++)
3,102 (KILVSLIEV; listed as Homo sapiens) [compound 102],“+++” (≥50 = +++)
4,181 (NLFDLGGQYLRV; listed as Homo sapiens) [compound 181],“+++” (≥50 = +++)
5,24 (VLDGVLMEL; listed as Homo sapiens) [compound 24],“+++” (≥50 = +++)
6,46 (GLDDRYSLV; listed as Homo sapiens) [compound 46],“+++” (≥50 = +++)
7,116 (LVYQFVHPI; listed as Homo sapiens) [compound 116],“++” (≥20% = ++)
8,149 (YQFDKVGILTL; listed as Homo sapiens) [compound 149],“+++” (≥50 = +++)
9,80 (QVDEVVDIMRV; listed as Homo sapiens) [compound 80],“++” (≥20% = ++)
10,62 (YLAPENGYL; listed as Homo sapiens) [compound 62],“++” (≥20% = ++)
11,188 (FLVDGPRVQL; listed as Homo sapiens) [compound 188],“+++” (≥50 = +++)
12,130 (GLGGSQLIDTHL; listed as Homo sapiens) [compound 130],“++” (≥20% = ++)
13,101 (GLSEGHTFQV; listed as Homo sapiens) [compound 101],“+++” (≥50 = +++)
14,168 (GLIRFPLMTI; listed as Homo sapiens) [compound 168],“+++” (≥50 = +++)
15,134 (GVAGGSILKGV; listed as Homo sapiens) [compound 134],“++++” (≥75% = ++++)
16,109 (ALDGDQMEL; listed as Homo sapiens) [compound 109],“++” (≥20% = ++)
17,128 (MLDDRAYLV; listed as Homo sapiens) [compound 128],“++” (≥20% = ++)
18,67 (SLNDLEKDVMLL; listed as Homo sapiens) [compound 67],“+++” (≥50 = +++)
19,98 (AMNGKSFSV; listed as Homo sapiens) [compound 98],“++” (≥20% = ++)

# — patent US10513547B2, “Peptides and combination of peptides and scaffolds thereof for use in immunotherapy against colorectal carcinoma (CRC) and other cancers” (Immatics Biotechnologies GmbH, priority 2015, dated 2019)
